The target in the assay is hSlo, human pore-forming α-subunit of the high conductance calcium-activated potassium channel (maxi-K) (human) (UniProt Q12791). Briefly: cell-based or functional assay.
Chain of UniProt Q12791 (Q12791 whole entry): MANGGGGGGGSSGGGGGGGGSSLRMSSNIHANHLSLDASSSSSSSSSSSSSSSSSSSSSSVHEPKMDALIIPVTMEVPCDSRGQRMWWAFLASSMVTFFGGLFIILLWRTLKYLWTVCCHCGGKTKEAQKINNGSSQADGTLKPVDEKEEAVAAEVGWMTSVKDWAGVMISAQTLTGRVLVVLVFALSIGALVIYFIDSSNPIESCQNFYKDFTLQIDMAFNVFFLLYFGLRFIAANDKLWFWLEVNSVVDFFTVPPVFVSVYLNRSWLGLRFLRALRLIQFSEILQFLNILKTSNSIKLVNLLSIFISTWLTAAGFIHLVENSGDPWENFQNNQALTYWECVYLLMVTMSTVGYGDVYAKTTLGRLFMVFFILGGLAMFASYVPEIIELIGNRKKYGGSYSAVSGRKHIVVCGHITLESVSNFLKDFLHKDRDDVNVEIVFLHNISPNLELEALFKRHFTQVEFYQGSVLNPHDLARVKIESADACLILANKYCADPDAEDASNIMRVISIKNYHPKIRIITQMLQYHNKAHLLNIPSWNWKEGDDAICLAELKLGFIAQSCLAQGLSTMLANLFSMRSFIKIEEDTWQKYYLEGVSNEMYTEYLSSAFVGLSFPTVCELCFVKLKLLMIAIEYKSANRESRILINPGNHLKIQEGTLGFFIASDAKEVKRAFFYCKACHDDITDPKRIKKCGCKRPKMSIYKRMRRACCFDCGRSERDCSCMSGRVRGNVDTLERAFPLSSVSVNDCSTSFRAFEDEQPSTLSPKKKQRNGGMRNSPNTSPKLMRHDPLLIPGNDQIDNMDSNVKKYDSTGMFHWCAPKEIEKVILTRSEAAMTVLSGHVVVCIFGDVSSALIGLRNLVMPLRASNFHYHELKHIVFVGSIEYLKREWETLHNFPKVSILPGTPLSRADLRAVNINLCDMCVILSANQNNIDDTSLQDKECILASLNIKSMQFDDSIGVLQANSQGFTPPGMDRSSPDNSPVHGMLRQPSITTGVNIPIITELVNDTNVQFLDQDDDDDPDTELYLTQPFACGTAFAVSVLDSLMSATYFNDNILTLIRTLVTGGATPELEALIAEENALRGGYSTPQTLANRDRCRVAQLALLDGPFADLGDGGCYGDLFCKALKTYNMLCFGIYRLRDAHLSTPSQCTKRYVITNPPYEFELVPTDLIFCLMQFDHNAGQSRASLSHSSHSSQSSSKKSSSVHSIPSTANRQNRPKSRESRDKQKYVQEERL

For “charybdotoxin (from UniProt P13487 23-59) (peptide)”, the block of hSlo current (whole cell patch) at 300 nM toxin is over 90%.

For the substance “iberiotoxin (from UniProt P24663 1-37) (peptide)”, the block of hSlo current (whole cell patch) at 300 nM toxin is over 90%.

Source of the values: patent US20110171205A1.
